In article PMC12120360, “Lysine acetylation modulates s‐OPA1 GTPase activity and oligomerization in mitochondrial membrane remodeling” (Protein Science : A Publication of the Protein Society, 2025):

Biological target: the molecule itself
Assay: mass photometry; protein in solution at 75 nM final; 20 mM HEPES-NaOH pH 7.5, 130 mM NaCl, 10 mM KCl, 2 mM MgCl2, 2 mM DTT, 2% glycerol; Refeyn mass photometer; mass measured three times for each protein

Protein	stoichiometry N
s-OPA1 K579Q (domain or fragment, human, UniProt O60313-1 195-960, looked up, endogenous lysine acetylation, sites listed in Figure 2c, Optic Atrophy 1 (OPA1), human, short form (s-OPA1), residues 195-960; domain model of isoform 1; Gene bought from Genscript in the pGS-21a vector; source: E. coli BL21 (DE3), purified (glutathione resin, 3C protease cleavage, size exclusion chromatography)) ATDRGSESDKHFRKVSDKEKIDQLQEELLHTQLKYQRILERLEKENKELRKLVLQKDDKGIHHRKLKKSLIDMYSEVLDVLSDYDASYNTQDHLPRVVVVGDQSAGKTSVLEMIAQARIFPRGSGEMMTRSPVKVTLSEGPHHVALFKDSSREFDLTKEEDLAALRHEIELRMRKNVKEGCTVSPETISLNVKGPGLQRMVLVDLPGVINTVTSGMAPDTKETIFSISKAYMQNPNAIILCIQDGSVDAERSIVTDLVSQMDPHGRRTIFVLTKVDLAEKNVASPSRIQQIIEGKLFPMKALGYFAVVTGKGNSSESIEAIREYEEEFFQNSKLLKTSMLKAHQVTTRNLSLAVSDCFWKMVRESVEQQADSFKATRFNLETEWQNNYPRLRELDRNELFEKAKNEILDEVISLSQVTPKHWEEILQQSLWERVSTHVIENIYLPAAQTMNSGTFNTTVDIKLKQWTDKQLPNKAVEVAWETLQEEFSRFMTEPKGKEHDDIFDKLKEAVKEESIKRHKWNDFAEDSLRVIQHNALEDRSISDKQQWDAAIYFMEEALQARLKDTENAIENMVGPDWKKRWLYWKNRTQEQCVHNETKNELEKMLKCNEEHPAYLASDEITTVRKNLESRGVEVDPSLIKDTWHQVYRRHFLKTALNHCNLCRRGFYYYQRHFVDSELECNDVVLFWRIQRMLAITANTLRQQLTNTEVRRLEKNVKEVLEDFAEDGEKKIKLLTGKRVQLAEDLKKVREIQEKLDAFIEALHQEK	2
s-OPA1 K328Q (domain or fragment, human, UniProt O60313-1 195-960, looked up, acetyl-lysine at K713 only (endogenous, by mass spectrometry), Optic Atrophy 1 (OPA1), human, short form (s-OPA1), residues 195-960; domain model of isoform 1; Gene bought from Genscript in the pGS-21a vector; also called acetylation mimetic mutant K328Q; source: E. coli BL21 (DE3), purified (glutathione resin, 3C protease cleavage, size exclusion chromatography)) ATDRGSESDKHFRKVSDKEKIDQLQEELLHTQLKYQRILERLEKENKELRKLVLQKDDKGIHHRKLKKSLIDMYSEVLDVLSDYDASYNTQDHLPRVVVVGDQSAGKTSVLEMIAQARIFPRGSGEMMTRSPVQVTLSEGPHHVALFKDSSREFDLTKEEDLAALRHEIELRMRKNVKEGCTVSPETISLNVKGPGLQRMVLVDLPGVINTVTSGMAPDTKETIFSISKAYMQNPNAIILCIQDGSVDAERSIVTDLVSQMDPHGRRTIFVLTKVDLAEKNVASPSRIQQIIEGKLFPMKALGYFAVVTGKGNSSESIEAIREYEEEFFQNSKLLKTSMLKAHQVTTRNLSLAVSDCFWKMVRESVEQQADSFKATRFNLETEWKNNYPRLRELDRNELFEKAKNEILDEVISLSQVTPKHWEEILQQSLWERVSTHVIENIYLPAAQTMNSGTFNTTVDIKLKQWTDKQLPNKAVEVAWETLQEEFSRFMTEPKGKEHDDIFDKLKEAVKEESIKRHKWNDFAEDSLRVIQHNALEDRSISDKQQWDAAIYFMEEALQARLKDTENAIENMVGPDWKKRWLYWKNRTQEQCVHNETKNELEKMLKCNEEHPAYLASDEITTVRKNLESRGVEVDPSLIKDTWHQVYRRHFLKTALNHCNLCRRGFYYYQRHFVDSELECNDVVLFWRIQRMLAITANTLRQQLTNTEVRRLEKNVKEVLEDFAEDGEKKIKLLTGKRVQLAEDLKKVREIQEKLDAFIEALHQEK	2
s-OPA1 K772Q (domain or fragment, human, UniProt O60313-1 195-960, looked up, acetyl-lysine at K713 only (endogenous, by mass spectrometry), Optic Atrophy 1 (OPA1), human, short form (s-OPA1), residues 195-960; domain model of isoform 1; Gene bought from Genscript in the pGS-21a vector; source: E. coli BL21 (DE3), purified (glutathione resin, 3C protease cleavage, size exclusion chromatography)) ATDRGSESDKHFRKVSDKEKIDQLQEELLHTQLKYQRILERLEKENKELRKLVLQKDDKGIHHRKLKKSLIDMYSEVLDVLSDYDASYNTQDHLPRVVVVGDQSAGKTSVLEMIAQARIFPRGSGEMMTRSPVKVTLSEGPHHVALFKDSSREFDLTKEEDLAALRHEIELRMRKNVKEGCTVSPETISLNVKGPGLQRMVLVDLPGVINTVTSGMAPDTKETIFSISKAYMQNPNAIILCIQDGSVDAERSIVTDLVSQMDPHGRRTIFVLTKVDLAEKNVASPSRIQQIIEGKLFPMKALGYFAVVTGKGNSSESIEAIREYEEEFFQNSKLLKTSMLKAHQVTTRNLSLAVSDCFWKMVRESVEQQADSFKATRFNLETEWKNNYPRLRELDRNELFEKAKNEILDEVISLSQVTPKHWEEILQQSLWERVSTHVIENIYLPAAQTMNSGTFNTTVDIKLKQWTDKQLPNKAVEVAWETLQEEFSRFMTEPKGKEHDDIFDKLKEAVKEESIKRHKWNDFAEDSLRVIQHNALEDRSISDKQQWDAAIYFMEEALQARLKDTENAIENMVGPDWQKRWLYWKNRTQEQCVHNETKNELEKMLKCNEEHPAYLASDEITTVRKNLESRGVEVDPSLIKDTWHQVYRRHFLKTALNHCNLCRRGFYYYQRHFVDSELECNDVVLFWRIQRMLAITANTLRQQLTNTEVRRLEKNVKEVLEDFAEDGEKKIKLLTGKRVQLAEDLKKVREIQEKLDAFIEALHQEK	2
s-OPA1 K328R (domain or fragment, human, UniProt O60313-1 195-960, looked up, endogenous lysine acetylation, sites listed in Figure 2c, Optic Atrophy 1 (OPA1), human, short form (s-OPA1), residues 195-960; domain model of isoform 1; Made as a deacetylation mimetic; source: E. coli BL21 (DE3), purified (glutathione resin, 3C protease cleavage, size exclusion chromatography)) ATDRGSESDKHFRKVSDKEKIDQLQEELLHTQLKYQRILERLEKENKELRKLVLQKDDKGIHHRKLKKSLIDMYSEVLDVLSDYDASYNTQDHLPRVVVVGDQSAGKTSVLEMIAQARIFPRGSGEMMTRSPVRVTLSEGPHHVALFKDSSREFDLTKEEDLAALRHEIELRMRKNVKEGCTVSPETISLNVKGPGLQRMVLVDLPGVINTVTSGMAPDTKETIFSISKAYMQNPNAIILCIQDGSVDAERSIVTDLVSQMDPHGRRTIFVLTKVDLAEKNVASPSRIQQIIEGKLFPMKALGYFAVVTGKGNSSESIEAIREYEEEFFQNSKLLKTSMLKAHQVTTRNLSLAVSDCFWKMVRESVEQQADSFKATRFNLETEWKNNYPRLRELDRNELFEKAKNEILDEVISLSQVTPKHWEEILQQSLWERVSTHVIENIYLPAAQTMNSGTFNTTVDIKLKQWTDKQLPNKAVEVAWETLQEEFSRFMTEPKGKEHDDIFDKLKEAVKEESIKRHKWNDFAEDSLRVIQHNALEDRSISDKQQWDAAIYFMEEALQARLKDTENAIENMVGPDWKKRWLYWKNRTQEQCVHNETKNELEKMLKCNEEHPAYLASDEITTVRKNLESRGVEVDPSLIKDTWHQVYRRHFLKTALNHCNLCRRGFYYYQRHFVDSELECNDVVLFWRIQRMLAITANTLRQQLTNTEVRRLEKNVKEVLEDFAEDGEKKIKLLTGKRVQLAEDLKKVREIQEKLDAFIEALHQEK	2
